Experiments:
recombinant human RSPO2 = recombinant human RSPO2 (human, UniProt Q6UXX9 22-243); assay: cell-based or functional assay
recombinant human RSPO3 [1] = molecular target: T1, recombinant human RSPO3 (human, UniProt Q9BXY4 22-272); assay: cell-based or functional assay
T1 sequence: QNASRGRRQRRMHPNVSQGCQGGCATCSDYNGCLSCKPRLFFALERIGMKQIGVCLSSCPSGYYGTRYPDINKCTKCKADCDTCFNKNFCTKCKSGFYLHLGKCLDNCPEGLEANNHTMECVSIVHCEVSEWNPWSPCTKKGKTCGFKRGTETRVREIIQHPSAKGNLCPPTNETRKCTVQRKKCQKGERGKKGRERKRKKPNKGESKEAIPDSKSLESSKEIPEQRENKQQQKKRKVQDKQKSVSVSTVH

cynomolgus RSPO3 [2] = molecular target: T2, cynomolgus RSPO3 (cynomolgus, UniProt A0A2K5UTQ7 22-273); assay: cell-based or functional assay
T2 sequence: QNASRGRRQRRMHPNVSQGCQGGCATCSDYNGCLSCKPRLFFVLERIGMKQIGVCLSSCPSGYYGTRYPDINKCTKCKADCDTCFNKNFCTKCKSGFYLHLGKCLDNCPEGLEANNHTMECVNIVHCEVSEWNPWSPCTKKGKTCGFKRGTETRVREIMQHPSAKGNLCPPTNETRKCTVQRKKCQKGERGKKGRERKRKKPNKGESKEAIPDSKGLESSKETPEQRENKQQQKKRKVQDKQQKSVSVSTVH

mouse RSPO3 [3] = molecular target: T3, mouse RSPO3 (mouse, UniProt Q2TJ95 22-277, limits assumed); assay: cell-based or functional assay
T3 sequence (looked up): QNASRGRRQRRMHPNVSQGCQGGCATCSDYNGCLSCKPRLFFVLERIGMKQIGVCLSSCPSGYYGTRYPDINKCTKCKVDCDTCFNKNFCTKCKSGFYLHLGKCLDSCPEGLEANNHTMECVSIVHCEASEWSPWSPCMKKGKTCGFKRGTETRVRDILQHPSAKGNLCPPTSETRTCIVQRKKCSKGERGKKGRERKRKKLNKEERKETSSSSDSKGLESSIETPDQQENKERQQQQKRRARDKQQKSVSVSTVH

cynomolgus RSPO2 = cynomolgus RSPO2 (cynomolgus, UniProt G7PCH9 22-243); assay: cell-based or functional assay
mouse RSPO2 [4] = molecular target: T4, mouse RSPO2 (mouse, UniProt Q8BFU0 22-205, limits assumed); assay: cell-based or functional assay
[5] = molecular target: T5, human RSPO3 with C-terminal HA tag, stably expressed in 293 cells (human, UniProt Q9BXY4 22-272); assay: IHC, FFPE 293 cell pellet, RSPO3 Hi
T5 construct: Whole open reading frame expressed in HEK-293 cells (high, medium, low); FFPE pellets; also called hRSPO3; RSPO3 Hi
T5 sequence: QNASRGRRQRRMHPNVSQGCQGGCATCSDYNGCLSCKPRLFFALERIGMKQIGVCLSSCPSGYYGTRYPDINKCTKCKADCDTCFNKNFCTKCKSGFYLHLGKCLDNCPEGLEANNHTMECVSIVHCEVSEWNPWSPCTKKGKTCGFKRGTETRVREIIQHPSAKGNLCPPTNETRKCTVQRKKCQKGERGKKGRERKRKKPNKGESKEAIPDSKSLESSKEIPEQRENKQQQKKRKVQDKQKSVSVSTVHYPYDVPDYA

[6] = molecular target: T5, human RSPO3 with C-terminal HA tag, …; assay: IHC, FFPE 293 cell pellet, RSPO3 Low
[7] = molecular target: T5, human RSPO3 with C-terminal HA tag, …; assay: IHC, FFPE 293 cell pellet, RSPO3 Med
[8] = molecular target: T6, human RSPO1 with C-terminal HA tag, stably expressed in 293 cells (human, UniProt Q2MKA7 21-263); assay: IHC, FFPE 293 cell pellet, RSPO1 Hi; - = not significant staining
T6 construct: also called hRSPO1; RSPO1 Hi

[9] = molecular target: T7, human RSPO4 with C-terminal HA tag, stably expressed in 293 cells (human, UniProt Q2I0M5 20-234); assay: IHC, FFPE 293 cell pellet, RSPO4 Hi; - = not significant staining
T7 construct: also called hRSPO4; RSPO4 Hi

[10] = molecular target: T8, FLAG-tagged human RSPO3 (Genentech) (human, UniProt Q9BXY4 22-272); assay: competitive binding ELISA: antibody titrated against LGR4-Fc (LGR4-ECD) binding to plate-coated hRSPO3; signal = bound LGR4-Fc, OD(450/630)/OD no antibody
T8 construct: also called hRSPO3; RSPO3 coated plates; not shown: FLAG tag
T8 sequence: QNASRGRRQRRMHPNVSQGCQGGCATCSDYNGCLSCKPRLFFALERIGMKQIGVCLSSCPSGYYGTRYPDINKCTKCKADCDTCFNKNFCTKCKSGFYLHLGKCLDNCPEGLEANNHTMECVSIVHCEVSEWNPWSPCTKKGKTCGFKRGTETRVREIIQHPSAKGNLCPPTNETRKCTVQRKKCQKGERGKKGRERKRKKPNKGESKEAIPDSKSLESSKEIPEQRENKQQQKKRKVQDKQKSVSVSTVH
Procedure: To measure the activity of anti-RSPO antibodies in blocking the binding of LGR4 and -5 ECDs to RSPOs, MaxiSorp 384-well microwell plates (Thermo Scientific Nunc, Roskilde, Denmark) were coated with 25 ul/well of 0.5 μg/ml hRSPO2 or hRSPO3 (Genentech) in 50 mM carbonate buffer, pH 9.6, overnight at 4° C. Plates were blocked with at 80 ul/well of 0.5% bovine serum albumin, 15 parts per million Proclin 300 in phosphate buffered saline (PBS), pH 7.4, for 1 hour. Serially diluted anti-RSPO antibodies ([…] in […] serial dilution plus buffer blank) containing 0.1 μg/ml LGR4-Fc or 0.015 μg/ml LGR5-Fc in assay buffer (0.5% BSA, 0.05% polysorbate 20, 15 parts per million Proclin 300 in PBS) were added to the plates at 25 ul/well. After a 2-hour incubation, LGR4-Fc and LGR5-Fc bound to the plates were detected using peroxidase labeled goat F(ab′)2 anti-human Fc (Jackson ImmunoResearch, West Grove, Pa.). After a 1 hour incubation, the substrate 3,3′,5,5′-tetramethyl benzidine (Moss Inc., Pasadena, Md.) was added to the plates and the reaction was stopped by adding 1 M phosphoric acid. Plates were washed with PBS, pH 7.4, containing 0.05% tween 20, between steps and all the incubation steps following the coating step were performed at room temperature on an orbital shaker. Absorbance was read at 450 nm on a multiskan Ascent reader (Thermo Scientific, Hudson, N.H.).

mouse RSPO2 [11] = molecular target: T4, mouse RSPO2; assay: SPR (Biacore) with the Fab; table row RSPO2, Affinity (nM) Fab
Procedure: (§1) For kinetic measurements, two-fold serial dilutions of anti-RSPO Fabs were injected in HBS-P buffer (0.01M HEPES pH 7.4, 0.15M NaCl, 0.005% surfactant P20) at 25° C. with a flow rate of 30 μl/min. Association rates (kₒₙ) and dissociation rates (koff) were calculated using a simple one-to-one Langmuir binding model (BIAcore Evaluation Software version 3.2). The equilibrium dissociation constant (KD) was calculated as the ratio koff/kₒₙ.
(§2) Surface plasmon resonance was used to confirm binding specificities and affinities to human, mouse, and cynomolgus RSPOs. Fab fragments from antibody clones were digested, purified, and then assayed using a BIAcore™-2000 instrument for binding to recombinant proteins. Antibodies fell into three groups: those specific to RSPO2, those specific to RSPO3, and those with some degree of cross-reactivity (FIG. 5).

recombinant human RSPO3 [12] = molecular target: T1, recombinant human RSPO3; assay: SPR (Biacore) with the Fab; table row RSPO3, Affinity (nM) Fab
Procedure: as §1, §2

recombinant human RSPO3 [13] = molecular target: T1, recombinant human RSPO3; assay: SPR, BIAcore T200, huRSPO3 immobilized, antibody injected
Procedure: The binding affinity of the antibodies in this section was determined by BIAcore™ T200 Format. Briefly, BIAcore™ research grade CMS chips were activated with 1-ethyl-3-(3-dimethylaminopropyl) carbodiimide (EDC) and N-hydroxysuccinimide (NETS) reagents according to the supplier's instructions. huRSPO3 was immobilized to achieve approximately 50 response units (RU) in each flow cell. Unreacted coupling groups were blocked with 1M ethanolamine. For kinetics measurements, Four-fold serial dilutions of variant antibody was injected in HBS-P buffer (0.01M HEPES pH7.4, 0.15M NaCl, 0.005% surfactant P20) at 25° C. with a flow rate of 30 μl/min. Association rates (kon) and dissociation rates (koff) were calculated using a 1:1 Langmuir binding model (BIAcore™ T200 Evaluation Software version 2.0). The equilibrium dissociation constant (Kd) was calculated as the ratio koff/kon.

cynomolgus RSPO3 [14] = molecular target: T2, cynomolgus RSPO3; assay: SPR (Biacore) with the Fab; table row RSPO3, Affinity (nM) Fab
Procedure: as §1, §2

mouse RSPO3 [15] = molecular target: T3, mouse RSPO3; assay: as above
Procedure: as §1, §2

T4 sequence (Q8BFU0 22-205 limits assumed): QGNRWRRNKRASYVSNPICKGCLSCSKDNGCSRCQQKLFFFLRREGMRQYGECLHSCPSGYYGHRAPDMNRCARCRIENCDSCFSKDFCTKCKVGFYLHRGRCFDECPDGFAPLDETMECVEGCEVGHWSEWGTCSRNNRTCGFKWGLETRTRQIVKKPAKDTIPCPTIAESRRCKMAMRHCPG
T6 sequence (Q2MKA7 other isoform, or with tags, fused parts or gaps limits assumed): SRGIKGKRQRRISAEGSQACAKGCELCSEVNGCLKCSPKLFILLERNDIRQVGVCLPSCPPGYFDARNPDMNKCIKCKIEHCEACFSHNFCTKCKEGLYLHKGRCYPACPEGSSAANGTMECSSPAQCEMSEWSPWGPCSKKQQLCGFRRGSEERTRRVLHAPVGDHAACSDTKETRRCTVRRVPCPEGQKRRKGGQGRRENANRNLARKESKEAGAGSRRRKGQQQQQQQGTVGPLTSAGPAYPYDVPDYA
T7 sequence (Q2I0M5 other isoform, or with tags, fused parts or gaps limits assumed): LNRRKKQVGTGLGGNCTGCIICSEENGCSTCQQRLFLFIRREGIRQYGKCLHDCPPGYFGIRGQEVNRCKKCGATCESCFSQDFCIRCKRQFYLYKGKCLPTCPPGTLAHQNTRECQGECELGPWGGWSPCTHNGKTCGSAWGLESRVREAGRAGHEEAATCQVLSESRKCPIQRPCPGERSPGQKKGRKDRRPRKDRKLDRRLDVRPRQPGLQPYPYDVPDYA
cynomolgus RSPO2, sequence (G7PCH9 entry or part of it): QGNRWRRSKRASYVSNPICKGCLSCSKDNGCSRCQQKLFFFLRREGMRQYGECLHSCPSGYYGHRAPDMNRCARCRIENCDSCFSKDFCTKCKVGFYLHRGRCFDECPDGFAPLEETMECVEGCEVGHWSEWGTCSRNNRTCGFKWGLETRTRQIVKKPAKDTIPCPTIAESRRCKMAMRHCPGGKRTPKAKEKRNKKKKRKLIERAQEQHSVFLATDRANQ
recombinant human RSPO2, sequence (Q6UXX9 22-243): as the sequence (G7PCH9 entry or part of it) above, with A160V, P165L, A178T counted along it

Row | Binder | percentage of cells staining [5] [%] | percentage of cells staining [6] [%] | percentage of cells staining [7] [%] | binding result [8] | binding result [9] | IC50 (read off the curve) [10] [µg/mL] | binding result (mouse RSPO2 [11]) | Kd (recombinant human RSPO3 [12]) [nM] | Kd (cynomolgus RSPO3 [14]) [nM] | Kd (mouse RSPO3 [15]) [nM] | further results
1 | 5C2 (antibody, V domains shown, also called monoclonal antibody 5C2) VH: EVQLQESGPGLVAPSQSLSITCTVSGFSLTSYGVHWVRQPPGKGLEWLGVIWTGGSTNYNSALMSRLSISKDNSKSQVFLKMNSLQTDDTAMYYCARVDGYYYFDYWGQGTTLTVSS VL: DIVMTQSTSSLSASLGDRVTISCRASQDISNYLNWYQQKPDGTVKLLIYYTSRLHSGVPSRFSGSGSGTDYSLTISNLEPEDIATYFCQQGDTLPPTFGGGTKLEIK | > 95 | 40 | 60 | no binding | no binding | ~0.1 | – | – | – | – | IC50, WNT luciferase reporter, bivalent antibody (recombinant human RSPO2): > 500 nM; IC50, WNT luciferase reporter, bivalent antibody (recombinant human RSPO3 [1]): 0.65 nM; IC50, WNT luciferase reporter, bivalent antibody (cynomolgus RSPO3 [2]): 1.3 nM; IC50, WNT luciferase reporter, bivalent antibody (mouse RSPO3 [3]): 0.47 nM; IC50, WNT luciferase reporter, bivalent antibody (cynomolgus RSPO2): > 500 nM; IC50, WNT luciferase reporter, bivalent antibody (mouse RSPO2 [4]): > 500 nM
2 | 6E9 (Fab, V domains shown, also called Fab of 6E9; 6E9 Fab) VH: QVQLKESGPGLVQPSQSLSITCTVSGFSLTSYGVHWVRQSPGKGLEWLGVIWSGGSTDYNAAFISRLSISKDNSKSQVFFKMNSLQANDTAIYYCARNDGYYYFDYWGQGTTLTVSS VL: DIKMTQSTSSLSASLGDRVTISCRASQDISNYLNWYQQKPDGTVKLLIYYTSRLHSGVPSRFSGSGSGTDYSLTISNLEQEDIATYFCQQGDTLPPAFGGGTKLEIK | – | – | – | – | – | – | no binding | 67 | – | – | –
3 | hu5D6v4.3 (Fab, V domains shown, Humanized 5D6 variant; also called v1+T69 (LC)+(W47+I48+F78 (HC))) VH: EVQLVESGPGLVKPSETLSLTCTVSGDSITSGYWNWIRQPPGKGLEWIGYISYSGKTYQNPSLKSRITISRDTSKNQFSLKLSSVTAADTAVYYCATYYGYGGPWFAYWGQGTLVTVSS VL: DIQMTQSPSSLSASVGDRVTITCKASQDIDSYLSWFQQKPGKAPKTLIYLTNRLVDGVPSRFSGSGSGTDYTLTISSLQPEDFATYYCLHYDEFPLTFGQGTKVEIK | – | – | – | – | – | – | – | – | – | – | Kd (recombinant human RSPO3 [13]): 0.07 nM
4 | Fab 5D6 (Fab, V domains shown, Fab expressed in E. coli for crystallography; also called 5D6 Fab) VH: EVQLQESGPSLVKPSQTLSLTCSVTGDSITSGYWNWIRKFPGNKFEYMGYISYSGKTYQNPSLKSRISITRDTSKNQYHLQLNSVTTEDTATYYCATYYGYGGPWFAYWGQGTLVTVSA VL: DIVLTQSPSSMYASLGERVTITCKASQDIDSYLSWFQQKPGKSPKTLIYLTNRLVDGVPSRFSGSGSGQDYSLTISSLEYEDMGIYYCLHYDEFPLTFGAGTKLEIK | – | – | – | – | – | – | no binding | 0.073 | 1.9 | 3.36 | –
5 | 4H1 (Fab, V domains shown, also called Fab of 4H1; 4H1 Fab) VH: EVKLVESGGGFVKPGGSLKLSCAASGFTFSNFAMSWVRQSPEKRLEWVAEINNGGNYAYYQDTVTGRFTISRDNAKNTLYLEMSSLRSEDTAMYFCAREDYVNYEAYFAYWGQGTTLTVSS VL: SIVMTQTPLSLPVSLGDQASISCRSSQSIVHSNGNTYLEWYLQKPGQSPKLLIYRISNRFSGVPDRFSGSGSGTDFTLKISRVEAEDLGVYYCFQGSHVPYTFGGGTKLEIK | – | – | – | – | – | – | no binding | 9.5 | 6.4 | 6.8 | –
6 | 21C2 (antibody, V domains shown, also called monoclonal antibody 21C2) VH: QVQLQQSGAELVRPGVSVKISCKGSGYTFTDYVIHWVKQSHAKSLEWIGVITTYYGDASYNQKFKGKATMTVDKSSSTAYMELARLTSEDSAIYYCARGAYGNSPSYWYFDVWGAGTSVTVSS VL: DIVLTQSPASLTVSLGQRATISCRASESVDSYGNTFMHWYQQKPGQPPKLLIYLASNLESGVPARFSGSGSRTDFTLTIDPVEADDAATYYCQQNNEDPYTFGGGTKLEIK | 95 | 10 | 60 | no binding | no binding | ~0.1 | – | – | – | – | –
